Results on 6 substances are retold here after US20040106569.

Data set [1] deals with GST-GSK3 fusion protein (Cell Signaling Technology).

Marks after values point to notes of the source that are not given here.

“PKNbeta kinase domain with threonine 718 changed to glutamic acid”: the “Activity (phosphorylation of MPB)” value in the data set with myelin basic protein is listed as “-*!”.

As for “PKNbeta kinase domain having a mutation at position 588 from lysine to arginine”, the “Activity (phosphorylation of MPB)” value in the data set on myelin basic protein is “-*”.

Consider “PKNbeta kinase domain comprising amino acids 535-889”, for which, in the data set on myelin basic protein, the “Activity (phosphorylation of MPB)” value is recorded as “+*” and the “radioactive in vitro kinase assay, 32P incorporation by autoradiography (FIG. 11B)” value was “the full length wildtype protein kinase N beta as well as the kinase domain show activity”. Also, the “non-radioactive in vitro kinase assay, phosphorylated substrate detected by Western blot” value in data set [1] was “Only the full length wildtype protein kinase N beta or the kinase domain as defined in example 9 were suitable to phosphorylate the substrate”.

As for “PKNbeta kinase domain with threonine 718 changed to aspartic acid”, the “Activity (phosphorylation of MPB)” value with myelin basic protein is “-*!”.

For the substance “PKNbeta kinase domain with threonine 718 changed to alanine”, the “Activity (phosphorylation of MPB)” value in the data set with myelin basic protein is “-*”.

With “PKNbeta kinase domain having a mutation at position 588 from lysine to glutamic acid”, the “Activity (phosphorylation of MPB)” value with myelin basic protein is “-*”.
